What is called Kd is the free concentration of one partner at which half of the binding sites on the other are occupied at equilibrium, for simple one-to-one binding. Usually koff stands for the first-order rate constant of dissociation. The term kon denotes the rate constant with which the complex forms.

These results are taken from patent US20210155689A1 (SHANGHAI PHARMAEXPLORER, published 2021).

The target of test [1] is T1, monkey LAG-3 on cells (HEK293-cLAG-3 stable cell line) (monkey, UniProt P18627 24-525 (human entry)).
T1 construct: Full-length monkey (Chinese monkey) LAG-3 gene expressed on HEK293 cells
T1 chain: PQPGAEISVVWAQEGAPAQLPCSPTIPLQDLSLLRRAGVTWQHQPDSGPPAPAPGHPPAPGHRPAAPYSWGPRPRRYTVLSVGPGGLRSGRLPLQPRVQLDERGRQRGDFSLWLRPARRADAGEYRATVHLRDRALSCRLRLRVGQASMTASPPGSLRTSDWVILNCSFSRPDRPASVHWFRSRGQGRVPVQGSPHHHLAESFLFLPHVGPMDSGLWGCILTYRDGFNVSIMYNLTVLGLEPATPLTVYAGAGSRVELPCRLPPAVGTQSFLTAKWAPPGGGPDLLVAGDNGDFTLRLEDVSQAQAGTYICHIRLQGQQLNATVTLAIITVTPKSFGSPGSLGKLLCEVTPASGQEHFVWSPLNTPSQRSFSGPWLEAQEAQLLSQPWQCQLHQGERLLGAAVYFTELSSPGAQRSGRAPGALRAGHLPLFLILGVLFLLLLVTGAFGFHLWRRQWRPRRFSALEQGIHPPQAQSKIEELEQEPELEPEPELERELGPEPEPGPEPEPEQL
Briefly: FACS, HEK293-cLAG-3, antibody 0.000 nM. From the text: The pIRES plasmid with the monkey-derived full-length gene was transfected into the HEK293 cell line to construct a HEK293 stable cell line containing monkey LAG-3 (herein referred to as HEK293-cLAG-3 stable cell line). The HEK293-hLAG-3 stable cell line and HEK293-cLAG-3 stable cell line were expanded in a T-75 cell culture flask to a 90% confluence. The medium was aspirated, and the cells were washed with HBSS (Hanks' Balanced Salt Solution) 1-2 times, then treated with a enzyme-free cell dissociation fluid (Versene solution: Life technology) and the cells were collected. The cells were washed with HBSS buffer for 1-2 times. After counted, the cells were diluted with HBSS to 1-2×10⁶ cells per ml, added with 1% goat serum blocking solution, incubated on ice for 20-30 minutes, and then washed with HBSS for 2 times by centrifugation. The collected cells were suspended in the FACS buffer (HBSS+1% BSA) to 2×10⁶ cells/ml, added as 100 microliters per well to a 96-well FACS reaction plate, added with 100 microliters per well of the antibody sample to be tested, incubated on ice for 1-2 hours. The plate was washed twice with the FACS buffer by centrifugation, added with 100 microliters of fluorescent (Alexa 488)-labeled secondary antibodies per well, and incubated on ice for 0.5-1.0 hours. The plate was washed 2-3 times with FACS buffer by centrifugation, added with 100 μl fixative solution (4% Paraformaldehyde) per well to suspend the cells. 5-10 minutes later, it was washed 1-2 times with FACS buffer by centrifugation. The cells were suspended with 100 microliters of FACS buffer, FACS (FACSCalibur, BD) was used for detection and the results were analyzed.
Background: A flow cytometer gives signals particle by particle.

Test [2] concerns the target T2, human LAG-3 ECD (antigen protein of the affinity test) (human, UniProt P18627 23-450).
T2 sequence: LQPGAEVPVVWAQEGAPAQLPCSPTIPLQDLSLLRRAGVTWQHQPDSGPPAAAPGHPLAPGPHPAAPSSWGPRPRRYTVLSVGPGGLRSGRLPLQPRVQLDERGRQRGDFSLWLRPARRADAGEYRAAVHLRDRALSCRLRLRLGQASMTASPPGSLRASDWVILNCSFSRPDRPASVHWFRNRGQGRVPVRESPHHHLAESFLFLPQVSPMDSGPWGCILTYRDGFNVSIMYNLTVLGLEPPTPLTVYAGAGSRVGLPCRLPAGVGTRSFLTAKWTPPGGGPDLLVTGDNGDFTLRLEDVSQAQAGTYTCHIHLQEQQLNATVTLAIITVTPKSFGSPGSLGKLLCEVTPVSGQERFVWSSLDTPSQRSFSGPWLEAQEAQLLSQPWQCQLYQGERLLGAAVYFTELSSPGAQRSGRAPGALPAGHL
Briefly: SPR, CM5 chip, antibody captured by anti-human Fc IgG, antigen in flow, 1:1 fit. The procedure:
First, anti-human Fc IgG was immobilized on the surface of the CM5 chip to 6000-10000 RU by amino coupling method, with FC1 as the reference channel. The coupling process was as follows: a freshly prepared 1:1 mixture of 50 mM NHS and 200 mM EDC was activated for 7 minutes, then injected with 10-50 ug/ml anti-human Fc IgG diluted in 10 mM sodium acetate ph5.0 buffer. The remaining activated sites were blocked with 1M ethanolamine. Then, HBS-EP+ buffer was used to dilute the antibody to be tested to 5 ug/ml (adjustable according to the capture level) and the antibodies were captured on the chip at a flow rate of 10 ul/min to obtain a response value of about 100˜300 RU. Then the antigen protein was diluted to 100 nM (the highest concentration was tentatively 100 nM), and flew through the chip surface at a flow rate of 30 ul/min. If enough signal value was obtained, the antigen-protein was diluted by several concentration gradients, and flew through the chip surface respectively. At the end of each cycle, the chip surface was regenerated with 10 mM Glycine at pH 1.5. The kinetic rate constant needed to be subtracted from the blank control, and the data was fitted with the global fit analysis method 1:1 combination model. The dissociation equilibrium rate constant (KD) was calculated according to the following formula: KD=kd/ka.
Background: SPR reads the build-up and loss of mass on a sensor chip optically.

B1: 556F6B8 mouse-human chimeric antibody (antibody, V domains shown)
VH: RVQLKQSGPGLVQPSQSLSITCTVSGFSLIKYGVHWVRQSPGEGLEWLGVIWRGGITDYNAAFMSRLSITKDNSKSQVFFKMNSLQADDTAIYYCAKWDGPLAMDYWGQGTSVTVSS
VL: DIVMTQSHKFLSTSVGDRVSITCKASQDVGTTVAWYQQKPGQSPKLLIYWASTRHTGVPDRFTGSGSGTDFTLTISNVQSEDLADYFCQQYSSYPYTFGGGTKLEIK
notes: also called mAb123-556F6B8; 556F8B8
Take B1: the Mean fluorescence intensity in test [1] was found to be 3.1. In test [2], the dissociation constant (Kd) was 3.77 nM, the koff was determined as 0.000459 s⁻¹ and the kon turned out to be 122000 M⁻¹ s⁻¹.

B2: 105F1E10 mouse-human chimeric antibody (antibody, V domains shown)
VH: EVQLQQSGPELVKPGASVKMSCRASGYTFTDFKMHWMKQSHGKSLEWIGYIAPNNGGTAYNQKFRGKATLTVNESSNTAYMELRSLTSEDSAVYYCVDWDDVDYWGQGTTLTVSS
VL: DIKMTQSPSSMYASLGERVTITCKASQDINSYLSWFQQKSGKSPKTLIYRANRLVDGVPSRFSGSGSGQDYSLTISSLEYEDMGIYYCLQYVEFPLTFGAGTKLELK
notes: also called mAb009-105F1E10
Turning to B2, the Mean fluorescence intensity in test [1] was found to be 2.72. Moreover, in test [2], the Kd came to 2.51 nM, the koff came out at 9.66e-05 s⁻¹ and the kon is 38500 M⁻¹ s⁻¹.

B3: 405B8H3 mouse-human chimeric antibody (antibody, V domains shown)
VH: QVQLQQSGAELVRPGASVTLSCKASGYTFTDYEMHWVKQTPVHGLEWIGATDPETGNSAYNQKFKGKAIMTADKSSSTAYMELRSLTSEDSAVYYCISTGWNDWGQGTSLTVSS
VL: DIKMTQSPSSMYASLGERVTITCKASQDINSYLSWFQQKPGKSPKTLIYRADRLLDGVPSRFSGSGSGQDYSLTISSLEYGDMGIYYCLQYDEFPYTFGGGTKLEIK
notes: also called mAb103-405B8H3
In test [1], B3 registered a Mean fluorescence intensity of 2.9. Further, in test [2], the Kd was 1.96 nM, the off-rate (koff) was found to be 0.000158 s⁻¹ and the kon worked out at 80400 M⁻¹ s⁻¹.
